Laboratory results taken from patent publication US20110008829.

How the values were obtained:
[1] = target: T1, HMGS with 12 SH3 peptide ligands recombined to the C-terminus, P54839
T1 sequence (P54839 whole entry, looked up): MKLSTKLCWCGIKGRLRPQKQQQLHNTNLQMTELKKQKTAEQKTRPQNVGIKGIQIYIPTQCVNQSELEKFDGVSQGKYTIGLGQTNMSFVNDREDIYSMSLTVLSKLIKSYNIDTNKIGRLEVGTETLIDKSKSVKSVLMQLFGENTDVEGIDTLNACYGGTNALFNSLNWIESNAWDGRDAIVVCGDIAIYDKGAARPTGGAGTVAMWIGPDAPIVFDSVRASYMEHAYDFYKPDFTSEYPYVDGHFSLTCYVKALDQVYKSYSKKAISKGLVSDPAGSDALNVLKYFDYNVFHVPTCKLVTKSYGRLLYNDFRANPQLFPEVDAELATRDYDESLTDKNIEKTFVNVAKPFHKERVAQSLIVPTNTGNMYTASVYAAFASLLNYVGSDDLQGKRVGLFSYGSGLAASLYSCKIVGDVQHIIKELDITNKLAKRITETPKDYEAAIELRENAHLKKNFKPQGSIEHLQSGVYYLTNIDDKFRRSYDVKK

[2] = target: T2, HMGS with 6 SH3 peptide ligands recombined to the C-terminus, P54839
T2 sequence (P54839 whole entry, looked up): T1 sequence (P54839 whole entry, looked up)

B1: HMGR with an N-terminal SH3 domain (protein)
chain: AEYVRALFDFNGNDEEDLPFKKGDILRIRDKPEEQWWNAEDSEGKRGMIPVPYVEKYRVLTNKTVISGSKVKSLSSAQSSSSGPSSSSEEDDSRDIESLDKKIRPLEELEALLSSGNTKQLKNKEVAALVIHGKLPLYALEKKLGDTTRAVAVRRKALSILAEAPVLASDRLPYKNYDYDRVFGACCENVIGYMPLPVGVIGPLVIDGTSYHIPMATTEGCLVASAMRGCKAINAGGGATTVLTKDGMTRGPVVRFPTLKRSGACKIWLDSEEGQNAIKKAFNSTSRFARLQHIQTCLAGDLLFMRFRTTTGDAMGMNMISKGVEYSLKQMVEEYGWEDMEVVSVSGNYCTDKKPAAINWIEGRGKSVVAEATIPGDVVRKVLKSDVSALVELNIAKNLVGSAMAGSVGGFNAHAANLVTAVFLALGQDPAQNVESSNCITLMKEVDGDLRISVSMPSIEVGTIGGGTVLEPQGAMLDLLGVRGPHATAPGTNARQLARIVACAVLAGELSLCAALAAGHLVQSHMTHNRKPAEPTKPNNLDATDINRLKDGSVTCIKS
**Q.** What does the source list for B1?
**A.** mevalonate production in E. coli, improvement [1]: reduced somewhat (to 7-fold) when the number of possible interactions was further increased; mevalonate production in E. coli, improvement [2]: mevalonate production reached a maximum ˜10-fold improvement with 6 possible interactions
